The target in the experiment is DnaK (E. coli Hsp70 chaperone), ADP-state (E. coli, UniProt P0A6Y8 1-638). Put plainly: fluorescence polarisation.

No end group written: not given here. AlexaFluor 488 = AlexaFluor 488 dye

Data on one molecule can be found in article PMC8322834 (Biochemistry, 2020).

DnaK (E. coli Hsp70 chaperone), ADP-state, sequence (P0A6Y8 whole entry): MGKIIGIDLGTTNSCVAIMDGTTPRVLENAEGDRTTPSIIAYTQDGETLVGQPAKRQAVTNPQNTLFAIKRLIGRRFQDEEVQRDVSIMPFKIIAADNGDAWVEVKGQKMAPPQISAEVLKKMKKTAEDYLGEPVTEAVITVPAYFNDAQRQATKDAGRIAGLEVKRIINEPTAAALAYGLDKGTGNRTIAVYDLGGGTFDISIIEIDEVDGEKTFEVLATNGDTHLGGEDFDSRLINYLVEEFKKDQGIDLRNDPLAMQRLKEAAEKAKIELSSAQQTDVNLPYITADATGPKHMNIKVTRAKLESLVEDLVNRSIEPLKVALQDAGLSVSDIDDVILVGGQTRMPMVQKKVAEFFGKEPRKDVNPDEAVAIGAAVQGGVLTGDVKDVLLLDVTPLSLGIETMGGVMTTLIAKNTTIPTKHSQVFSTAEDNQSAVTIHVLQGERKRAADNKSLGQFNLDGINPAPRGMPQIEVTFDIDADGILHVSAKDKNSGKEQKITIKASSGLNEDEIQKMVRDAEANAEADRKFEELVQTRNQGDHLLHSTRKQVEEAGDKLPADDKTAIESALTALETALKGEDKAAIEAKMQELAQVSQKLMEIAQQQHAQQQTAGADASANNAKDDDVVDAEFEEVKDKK

Turning to RRGKKLLLLLKKKGC(AlexaFluor 488) [KLR-70-C-AF488, AlexaFluor 488-conjugated KLR-70 peptide], the Kd was 1730 nM. In other words, the single-digit micromolar range.
